Target: Mycobacterium tuberculosis chorismate mutase variant V55D (Mycobacterium tuberculosis)
Experiment: crystal structure; sitting drop vapor diffusion, 20 °C; protein 44 mg/mL in 20 mM Bis Tris propane, pH 7.5, 150 mM NaCl; reservoir 0.2 M zinc acetate dihydrate, 10% w/v PEG 3000, 0.1 M sodium acetate, pH 4.5; space group P22(1)2(1); 2.1 Å

Mycobacterium tuberculosis chorismate mutase variant V55D (enzyme)
stoichiometry N: 2

From paper PMC9910054
